Positions count from the first letter of the chain named. In names and notes the source's numbering stands.
How the values were obtained:
[1] = target: RUNX3 (Runt-related transcription factor 3) protein, Q13761
Sequence of RUNX3 (Runt-related transcription factor 3) protein, Q13761 (Q13761 whole entry): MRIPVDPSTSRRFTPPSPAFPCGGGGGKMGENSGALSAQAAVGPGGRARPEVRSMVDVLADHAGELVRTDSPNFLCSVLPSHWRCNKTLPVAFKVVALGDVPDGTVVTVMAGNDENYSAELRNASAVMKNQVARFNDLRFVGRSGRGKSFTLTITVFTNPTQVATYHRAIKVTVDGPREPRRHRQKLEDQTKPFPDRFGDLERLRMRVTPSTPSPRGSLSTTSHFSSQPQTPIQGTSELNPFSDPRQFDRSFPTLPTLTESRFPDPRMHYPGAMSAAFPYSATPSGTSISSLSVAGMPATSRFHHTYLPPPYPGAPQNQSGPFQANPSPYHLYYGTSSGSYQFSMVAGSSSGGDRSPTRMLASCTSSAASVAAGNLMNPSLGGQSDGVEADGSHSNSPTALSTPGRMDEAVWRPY

Sequence of Myc-RUNX3, Q13761 (Q13761 whole entry): as above

B1: CDK4-WT (over-expressed) (protein)
chain: MATSRYEPVAEIGVGAYGTVYKARDPHSGHFVALKSVRVPNGGGGGGGLPISTVREVALLRRLEAFEHPNVVRLMDVCATSRTDREIKVTLVFEHVDQDLRTYLDKAPPPGLPAETIKDLMRQFLRGLDFLHANCIVHRDLKPENILVTSGGTVKLADFGLARIYSYQMALTPVVVTLWYRAPEVLLQSTYATPVDMWSVGCIFAEMFRRKPLFCGNSEADQLGKIFDLIGLPPEDDWPRDVSLPRGAFPPRGPRPVQSVVPEMEESGAQLLLEMLTFNPHKRISAFRALQHSYLHKDEGNPE
- phosphorylation of RUNX3 at Ser-356 (immunoblot) (Myc-RUNX3, Q13761): The over-expressed CDK4-WT phosphorylated Myc-RUNX3 2 to 4 hours after serum stimulation

B2: Flag-CDK4-T172A (protein)
chain: B1 chain with T172A
- phosphorylation of RUNX3 at Ser-356 (immunoblot) [1]: did not phosphorylate the 356th serine of RUNX3

From patent publication US20210330742
